Source: PMC6265326, “Structure of the hyperosmolality-gated calcium-permeable channel OSCA1.2” (Nature Communications, 2018)

Target: the molecule itself
Experiment: cryo-EM structure; single-particle cryo-EM of purified AtOSCA1.2 in 25 mM HEPES pH 7.4, 150 mM NaCl, 0.1% digitonin; 3.68 Å

B1: OSCA1.2 from Arabidopsis thaliana (AtOSCA1.2) (natural protein, UniProt Q5XEZ5 1-771, looked up)
chain: MATLQDIGVSAGINILSAFVFFIIFAVLRLQPFNDRVYFSKWYLKGLRSSPARGGAFAQRFVNLDFRSYMKFLNWMPEALKMPEPELIDHAGLDSVVYLRIYWLGLKIFTPIAVLAWAVLVPVNWTNNTLEMAKQLRNVTSSDIDKLSVSNIPEYSMRFWTHIVMAYAFTIWTCYVLMKEYETIANMRLQFVASEARRPDQFTVLVRNVPPDADESVSELVEHFFLVNHPDHYLTHQVVCNANKLADLVKKKKKLQNWLDYYQLKYARNNSQRIMVKLGFLGLWGQKVDAIEHYIAEIDKISKEISKEREEVVNDPKAIMPAAFVSFKTRWAAAVCAQTQQTRNPTQWLTEWAPEPRDVFWSNLAIPYVSLTVRRLIMHVAFFFLTFFFIVPIAFVQSLATIEGIVKAAPFLKFIVDDKFMKSVIQGFLPGIALKLFLAFLPSILMIMSKFEGFTSISSLERRAAFRYYIFNLVNVFLASVIAGAAFEQLNSFLNQSANQIPKTIGVAIPMKATFFITYIMVDGWAGVAGEILMLKPLIMFHLKNAFLVKTDKDREEAMDPGSIGFNTGEPRIQLYFLLGLVYAPVTPMLLPFILVFFALAYIVYRHQIINVYNQEYESAAAFWPDVHGRVIAALVISQLLLMGLLGTKHAALAAPFLIALPVLTIGFHHFCKGRYEPAFIRYPLQEAMMKDTLETAREPNLNLKGYLQNAYVHPVFKGDEDDYDIDDKLGKFEDEAIIVPTKRQSRRNTPAPSIISGDDSPSLPFSGKLV
notes: OSCA1.2 (alias CSC1), Arabidopsis thaliana, full length, 771 amino acids; Homodimer in the cryo-EM structure; 683 residues were modelled and the 54 carboxyl-terminal residues are missing from the model; also called CSC1; source: Sf-9 insect cells (baculovirus), purified (digitonin, Ni-NTA, Superose 6 SEC)
stoichiometry N: 2
